Legend:
[1] = molecular target: T1, H33 I-CreI mutant (C3 / HprCH3.3 cutter)
T1 chain: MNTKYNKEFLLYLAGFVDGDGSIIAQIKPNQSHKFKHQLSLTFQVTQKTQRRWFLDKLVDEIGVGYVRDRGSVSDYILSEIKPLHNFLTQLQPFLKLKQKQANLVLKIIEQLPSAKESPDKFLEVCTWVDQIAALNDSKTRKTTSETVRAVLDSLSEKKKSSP

[2] = molecular target: the molecule itself; test: analytical gel filtration (Superdex 200) of the purified single chain; no self-association
Protocol: Circular dichroism (CD) measurements were performed on a Jasco J-810 spectropolarimeter using a 0.2 cm path length quartz cuvette adm […] protein solutions in phosphate saline buffers. Equilibrium unfolding was induced increasing temperature at a rate of 1° C./min (using a programmable Peltier thermoelectric). Analytical gel filtration chromatography was performed at room temperature with an AKTA FPLC system (GE) using a Superdex 200 10/300GL column in 20 mM sodium phosphate buffer pH 6.0 1 M NaCl. A sample of 100 μL of SC-v3v2G19S constructs at a concentration of 0.3 mg/ml was injected and eluted at a flow rate of 0.2 ml/min. The column was calibrated with blue dextran (excluded volume) and molecular weight markers from 17 to 670 kDa (BioRad).

[3] = molecular target: the molecule itself; test: size-exclusion chromatography of the purified protein; no self-association
Protocol: The molecular weight of Sc I-CreI in solution was estimated by size-exclusion chromatography of the purified protein. The column fractions were analyzed by SDS-PAGE, and the 31.4 kDa band eluted primarily, which corresponded to a molecular mass of 30 kDa.

B1: X2-L1-H33 single chain meganuclease (protein)
chain: MNTKYNKEFLLYLAGFVDGDGSIIAQIKPNQSHKFKHALQLTFKVTQKTQRRWFLDKLVDEIGVGYVQDSGSVSNYILSEIKPLHNFLTQLQPFLKLKQKQANLVLKIIEQLPSAKESPDKFLEVCTWVDQIAALNDSKTRKTTSETVRAVLDSLSEKKKSSPAAGGGGSGGGGSGGGGSGGGGSNKEFLLYLAGFVDGDGSIIAQIKPNQSHKFKHQLSLAFQVTQKTQRRWFLDKLVDEIGVGYVRDRGSVSDYILSEIKPLHNFLTQLQPFLKLKQKQANLVLKIIWRLPSAKESPDKFLEVCTWVDQIAALNDSKTRKTTSETVRAVLDSLSEKKKSSP
cleavage of the palindromic C3 target (yeast screen and CHO extrachromosomal assay): the strong cleavage of the C3 target with single chain molecules

B2: X2-L1-H33G19S single chain meganuclease (protein)
chain: MNTKYNKEFLLYLAGFVDGDGSIIAQIKPNQSHKFKHALQLTFKVTQKTQRRWFLDKLVDEIGVGYVQDSGSVSNYILSEIKPLHNFLTQLQPFLKLKQKQANLVLKIIEQLPSAKESPDKFLEVCTWVDQIAALNDSKTRKTTSETVRAVLDSLSEKKKSSPAAGGGGSGGGGSGGGGSGGGGSNKEFLLYLAGFVDSDGSIIAQIKPNQSHKFKHQLSLAFQVTQKTQRRWFLDKLVDEIGVGYVRDRGSVSDYILSEIKPLHNFLTQLQPFLKLKQKQANLVLKIIWRLPSAKESPDKFLEVCTWVDQIAALNDSKTRKTTSETVRAVLDSLSEKKKSSP
cleavage of the palindromic C3 target (CHO extrachromosomal assay): greatly reduces the activity toward the C3 target

B3: X2 I-CreI mutant (C4 cutter) (protein)
chain: MNTKYNKEFLLYLAGFVDGDGSIIAQIKPNQSHKFKHALQLTFKVTQKTQRRWFLDKLVDEIGVGYVQDSGSVSNYILSEIKPLHNFLTQLQPFLKLKQKQANLVLKIIEQLPSAKESPDKFLEVCTWVDQIAALNDSKTRKTTSETVRAVLDSLSEKKKSSP
cleavage of the palindromic C4 DNA target on co-expression of X2 and H33 in yeast: but also the C3 and C4 targets
cleavage of the XPC C1 DNA target on co-expression in yeast [1]: cleaves the C1 target

B4: H33 I-CreI mutant (C3 / HprCH3.3 cutter) (protein)
chain: MNTKYNKEFLLYLAGFVDGDGSIIAQIKPNQSHKFKHQLSLTFQVTQKTQRRWFLDKLVDEIGVGYVRDRGSVSDYILSEIKPLHNFLTQLQPFLKLKQKQANLVLKIIEQLPSAKESPDKFLEVCTWVDQIAALNDSKTRKTTSETVRAVLDSLSEKKKSSP
cleavage of the palindromic HprCH3.3 and HprCH3.4 targets on co-expression of MA17 and H33 in yeast: cleavage of the HprCH3.3 and HprCH3.4 targets

B5: MA17 I-CreI mutant (HprCH3.4 cutter) (protein)
chain: MNTKYNKEFLLYLAGFVDGDGSIIAQIKPNQTHKFKHQLSLTFRVTQKTQRRWFLDKLVDEIGVGYVYDSGTVSNYNLSEIKPLHNFLTQLQPFLKLKQKQANLVLKIIEQLPSAKESPDKFLEVCTWVDQIAALNDSKTRKTTSETVRAVLDSLSEKKKSSP
cleavage of the palindromic HprCH3.3 and HprCH3.4 targets on co-expression of MA17 and H33 in yeast: cleavage of the HprCH3.3 and HprCH3.4 targets
cleavage of the HprCH3 DNA target on co-expression in yeast [1]: resulted in the cleavage of the HprCH3 DNA target

B6: single-chain M3-RM2-M2G19S meganuclease (enzyme)
chain: MANTKYNKEFLLYLAGFVDGDGSIIAQINPNQSSKFKHRLRLTFYVTQKTQRRWFLDKLVDEIGVGYVRDSGSVSQYVLSEIKPLHNFLTQLQPFLKLKQKQANLVLKIIEQLPSAKESPDKFLEVCTWVDQIAALNDSKTRKTTSETVRAVLDSLSGKKKSSPAAGGSDKYNQALSKYNQALSKYNQALSGGGGSNKEFLLYLAGFVDSDGSIIAQIKPRQSNKFKHQLSLTFAVTQKTQRRWFLDKLVDEIGVGYVYDSGSVSDYRLSEIKPLHNFLTQLQPFLKLKQKQANLVLKIIEQLPSAKESPDKFLEVCTWVDQIAALNDSKTRKTTSETVRAVLDSLSEKKKSSP
notes: also called SC-v3v2G19S; not shown: His6 tag at the C-terminus
binding result [2]: no binding

B7: Single chain I-CreI meganuclease (enzyme)
chain: MANTKYNKEFLLYLAGFVDGDGSIIAQIKPNQSYKFKHQLSLTFQVTQKTQRRWFLDKLVDEIGVGYVRDRGSVSDYILSEIKPLHNFLTQLQAMLERIRLFNMREFLLYLAGFVDGDGSIIAQIKPNQSYKFKHQLSLTFQVTQKTQRRWFLDKLVDEIGVGYVRDRGSVSDYILSEIKPLHNFLTQLQPFLKLKQKQANLVLKIIEQLPSAKESPDKFLEVCTWVDQIAALNDSKTRKTTSETVRAVLDSLSEKKKSSPAAD
notes: Produced 'with or without an histidine tag'; It was purified on a cobalt column; also called Sc I-CreI; scI-CreI
binding result [3]: no binding

B8: M2-RM2-M3 RAG1 single chain meganuclease (protein)
chain: MNTKYNKEFLLYLAGFVDGDGSIIAQIKPRQSNKFKHQLSLTFAVTQKTQRRWFLDKLVDEIGVGYVYDSGSVSDYRLSEIKPLHNFLTQLQPFLKLKQKQANLVLKIIEQLPSAKESPDKFLEVCTWVDQIAALNDSKTRKTTSETVRAVLDSLSEKKKSSPAAGGSDKYNQALSKYNQALSKYNQALSGGGGSNKEFLLYLAGFVDGDGSIIAQINPNQSSKFKHRLRLTFYVTQKTQRRWFLDKLVDEIGVGYVRDSGSVSQYVLSEIKPLHNFLTQLQPFLKLKQKQANLVLKIIEQLPSAKESPDKFLEVCTWVDQIAALNDSKTRKTTSETVRAVLDSLSEKKKSSP
cleavage of the palindromic RAG1.10.2 target (yeast screen): M2-RM2-M3 was found to cleave also RAG1.10.2

B9: M2G19S-RM2-M3 RAG1 single chain meganuclease (protein)
chain: MNTKYNKEFLLYLAGFVDSDGSIIAQIKPRQSNKFKHQLSLTFAVTQKTQRRWFLDKLVDEIGVGYVYDSGSVSDYRLSEIKPLHNFLTQLQPFLKLKQKQANLVLKIIEQLPSAKESPDKFLEVCTWVDQIAALNDSKTRKTTSETVRAVLDSLSEKKKSSPAAGGSDKYNQALSKYNQALSKYNQALSGGGGSNKEFLLYLAGFVDGDGSIIAQINPNQSSKFKHRLRLTFYVTQKTQRRWFLDKLVDEIGVGYVRDSGSVSQYVLSEIKPLHNFLTQLQPFLKLKQKQANLVLKIIEQLPSAKESPDKFLEVCTWVDQIAALNDSKTRKTTSETVRAVLDSLSEKKKSSP
cleavage of the palindromic RAG1.10.2 target (yeast screen): abolishes RAG1.10.2 cleavage

B10: X2-RM2-H33G19S single chain meganuclease (protein)
chain: MNTKYNKEFLLYLAGFVDGDGSIIAQIKPNQSHKFKHALQLTFKVTQKTQRRWFLDKLVDEIGVGYVQDSGSVSNYILSEIKPLHNFLTQLQPFLKLKQKQANLVLKIIEQLPSAKESPDKFLEVCTWVDQIAALNDSKTRKTTSETVRAVLDSLSEKKKSSPAAGGSDKYNQALSKYNQALSKYNQALSGGGGSNKEFLLYLAGFVDSDGSIIAQIKPNQSHKFKHQLSLAFQVTQKTQRRWFLDKLVDEIGVGYVRDRGSVSDYILSEIKPLHNFLTQLQPFLKLKQKQANLVLKIIWRLPSAKESPDKFLEVCTWVDQIAALNDSKTRKTTSETVRAVLDSLSEKKKSSP
cleavage of the palindromic C3 target (CHO extrachromosomal assay): greatly reduces the activity toward the C3 target

B11: X2-RM2-H33 single chain meganuclease (protein)
chain: MNTKYNKEFLLYLAGFVDGDGSIIAQIKPNQSHKFKHALQLTFKVTQKTQRRWFLDKLVDEIGVGYVQDSGSVSNYILSEIKPLHNFLTQLQPFLKLKQKQANLVLKIIEQLPSAKESPDKFLEVCTWVDQIAALNDSKTRKTTSETVRAVLDSLSEKKKSSPAAGGSDKYNQALSKYNQALSKYNQALSGGGGSNKEFLLYLAGFVDGDGSIIAQIKPNQSHKFKHQLSLAFQVTQKTQRRWFLDKLVDEIGVGYVRDRGSVSDYILSEIKPLHNFLTQLQPFLKLKQKQANLVLKIIWRLPSAKESPDKFLEVCTWVDQIAALNDSKTRKTTSETVRAVLDSLSEKKKSSP
cleavage of the palindromic C3 target (yeast screen and CHO extrachromosomal assay): the strong cleavage of the C3 target with single chain molecules
